In publication PMC10147665:

B1: endogenous PDPK1 [not stated (endogenous; cell line of this co-IP not named)] / endogenous PID1 [not stated (endogenous; cell line of this co-IP not named)] (parent)
chain 1: MFSLPLSLPLCEDTAFLPSKCCSSHKTIKQARTLIMIFLASGTHFQTMLKSKLNVLTLKKEPLPAVIFHEPEAIELCTTTPLMKTRTHSGCKVTYLGKVSTTGMQFLSGCTEKPVIELWKKHTLAREDVFPANALLEIRPFQVWLHHLDHKGEATVHMDTFQVARIAYCTADHNVSPNIFAWVYREINDDLSYQMDCHAVECESKLEAKKLAHAMMEAFRKTFHSMKSDGRIHSNSSSEEVSQELESDDG
chain 2: MARTTSQLYDAVPIQSSVVLCSCPSPSMVRTQTESSTPPGIPGGSRQGPAMDGTAAEPRPGAGSLQHAQPPPQPRKKRPEDFKFGKILGEGSFSTVVLARELATSREYAIKILEKRHIIKENKVPYVTRERDVMSRLDHPFFVKLYFTFQDDEKLYFGLSYAKNGELLKYIRKIGSFDETCTRFYTAEIVSALEYLHGKGIIHRDLKPENILLNEDMHIQITDFGTAKVLSPESKQARANSFVGTAQYVSPELLTEKSACKSSDLWALGCIIYQLVAGLPPFRAGNEYLIFQKIIKLEYDFPEKFFPKARDLVEKLLVLDATKRLGCEEMEGYGPLKAHPFFESVTWENLHQQTPPKLTAYLPAMSEDDEDCYGNYDNLLSQFGCMQVSSSSSSHSLSASDTGLPQRSGSNIEQYIHDLDSNSFELDLQFSEDEKRLLLEKQAGGNPWHQFVENNLILKMGPVDKRKGLFARRRQLLLTEGPHLYYVDPVNKVLKGEIPWSQELRPEAKNFKTFFVHTPNRTYYLMDPSGNAHKWCRKIQEVWRQRYQSHPDAAVQ

Variants of: B1
Assay: co-immunoprecipitation (IP: HA, IB: PID1), band densitometry
Details: with endogenous PID1 [not stated (endogenous; cell line of this co-IP not named)]; IGF-1 + (insulin -); read off a plot

**Q.** chain 2 MARTTSQLFDAVPIQSSVVLCSCPSPSMVRTQTESSTPPGIPGGSRQGPAMDGTAAEPRPGAGSLQHAQPPPQPRKKRPEDFKFGKILGEGSFSTVVLARELATSREYAIKILEKRHIIKENKVPYVTRERDVMSRLDHPFFVKLYFTFQDDEKLYFGLSYAKNGELLKYIRKIGSFDETCTRFYTAEIVSALEYLHGKGIIHRDLKPENILLNEDMHIQITDFGTAKVLSPESKQARANSFVGTAQYVSPELLTEKSACKSSDLWALGCIIYQLVAGLPPFRAGNEYLIFQKIIKLEYDFPEKFFPKARDLVEKLLVLDATKRLGCEEMEGYGPLKAHPFFESVTWENLHQQTPPKLTAYLPAMSEDDEDCFGNFDNLLSQFGCMQVSSSSSSHSLSASDTGLPQRSGSNIEQYIHDLDSNSFELDLQFSEDEKRLLLEKQAGGNPWHQFVENNLILKMGPVDKRKGLFARRRQLLLTEGPHLYYVDPVNKVLKGEIPWSQELRPEAKNFKTFFVHTPNRTYYLMDPSGNAHKWCRKIQEVWRQRYQSHPDAAVQ [chain 2 Y9F Y373F Y376F] was tested. Which response did it give?
**A.** 0.06

Same assay, conditions: with endogenous PID1 [not stated (endogenous; cell line of this co-IP not named)]; insulin + (IGF-1 -); read off a plot

**Q.** With chain 2 MARTTSQLFDAVPIQSSVVLCSCPSPSMVRTQTESSTPPGIPGGSRQGPAMDGTAAEPRPGAGSLQHAQPPPQPRKKRPEDFKFGKILGEGSFSTVVLARELATSREYAIKILEKRHIIKENKVPYVTRERDVMSRLDHPFFVKLYFTFQDDEKLYFGLSYAKNGELLKYIRKIGSFDETCTRFYTAEIVSALEYLHGKGIIHRDLKPENILLNEDMHIQITDFGTAKVLSPESKQARANSFVGTAQYVSPELLTEKSACKSSDLWALGCIIYQLVAGLPPFRAGNEYLIFQKIIKLEYDFPEKFFPKARDLVEKLLVLDATKRLGCEEMEGYGPLKAHPFFESVTWENLHQQTPPKLTAYLPAMSEDDEDCFGNFDNLLSQFGCMQVSSSSSSHSLSASDTGLPQRSGSNIEQYIHDLDSNSFELDLQFSEDEKRLLLEKQAGGNPWHQFVENNLILKMGPVDKRKGLFARRRQLLLTEGPHLYYVDPVNKVLKGEIPWSQELRPEAKNFKTFFVHTPNRTYYLMDPSGNAHKWCRKIQEVWRQRYQSHPDAAVQ [chain 2 Y9F Y373F Y376F] as the variant, how does the response read?
**A.** 0.06

Same assay, conditions: with endogenous PID1 [not stated (endogenous; cell line of this co-IP not named)]; no growth factor (IGF-1 -, insulin -); read off a plot

**Q.** chain 2 MARTTSQLFDAVPIQSSVVLCSCPSPSMVRTQTESSTPPGIPGGSRQGPAMDGTAAEPRPGAGSLQHAQPPPQPRKKRPEDFKFGKILGEGSFSTVVLARELATSREYAIKILEKRHIIKENKVPYVTRERDVMSRLDHPFFVKLYFTFQDDEKLYFGLSYAKNGELLKYIRKIGSFDETCTRFYTAEIVSALEYLHGKGIIHRDLKPENILLNEDMHIQITDFGTAKVLSPESKQARANSFVGTAQYVSPELLTEKSACKSSDLWALGCIIYQLVAGLPPFRAGNEYLIFQKIIKLEYDFPEKFFPKARDLVEKLLVLDATKRLGCEEMEGYGPLKAHPFFESVTWENLHQQTPPKLTAYLPAMSEDDEDCFGNFDNLLSQFGCMQVSSSSSSHSLSASDTGLPQRSGSNIEQYIHDLDSNSFELDLQFSEDEKRLLLEKQAGGNPWHQFVENNLILKMGPVDKRKGLFARRRQLLLTEGPHLYYVDPVNKVLKGEIPWSQELRPEAKNFKTFFVHTPNRTYYLMDPSGNAHKWCRKIQEVWRQRYQSHPDAAVQ [chain 2 Y9F Y373F Y376F] was tested. Which response did it give?
**A.** 0.07
